The values that follow come from doi:10.1101/2020.06.10.144725 (bioRxiv, 2020).

Series [1] deals with Lip-NKD-HisC (lipoyl domain-tagged HisC of NKD1) (human (identical sequence in mouse and human)) (UniProt Q969G9). The experiment in a line: co-aggregation assay.
For series [2] the target is unchanged. The series can be described thus: SEC.
Series [3] concerns the molecule itself. The series can be described thus: SEC-MALS.
For series [4], the target named is T1, Lip-DVL2-PDZ (human, UniProt O14641 285-373).
T1 sequence: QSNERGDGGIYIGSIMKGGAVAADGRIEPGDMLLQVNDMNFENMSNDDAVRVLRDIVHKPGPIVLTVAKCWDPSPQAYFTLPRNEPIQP
The series can be described thus: ITC.

Lip-NKD-HisC (lipoyl domain-tagged HisC of NKD1) (human (identical sequence in mouse and human)), sequence (Q969G9 whole entry, the tested form may be a part): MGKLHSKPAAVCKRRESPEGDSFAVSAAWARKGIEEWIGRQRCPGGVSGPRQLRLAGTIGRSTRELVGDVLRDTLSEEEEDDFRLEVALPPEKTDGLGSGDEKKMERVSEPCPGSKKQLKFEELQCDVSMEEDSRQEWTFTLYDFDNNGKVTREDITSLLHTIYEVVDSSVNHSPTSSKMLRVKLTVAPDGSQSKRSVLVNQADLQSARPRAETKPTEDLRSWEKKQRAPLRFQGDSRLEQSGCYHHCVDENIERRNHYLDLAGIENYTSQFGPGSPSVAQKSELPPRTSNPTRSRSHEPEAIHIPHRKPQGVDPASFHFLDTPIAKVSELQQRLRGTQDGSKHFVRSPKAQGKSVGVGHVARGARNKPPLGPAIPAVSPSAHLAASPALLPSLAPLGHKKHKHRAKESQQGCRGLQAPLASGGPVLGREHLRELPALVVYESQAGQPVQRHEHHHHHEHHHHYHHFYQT

“MBP-NKD-HisC (maltose-binding protein-tagged HisC of NKD1) (from UniProt Q969G9 1-470) (domain or fragment)” returned a stoichiometry N in series [1] of 10. The molecule MBP-Axin2-HisC (domain or fragment) came in with a molecules per core (molecules per core) in series [1] below 4. As for “MBP-Axin1-HisC (from UniProt O15169 1-862) (domain or fragment)”, the molecules per core (molecules per core) in series [1] was below 5. For “Lip-NKD-HisC (lipoyl domain-tagged HisC of NKD1) (from UniProt Q969G9 1-470) (domain or fragment)”, the stoichiometry N in series [2] was in the range of 15 to 25.

B1: RFP-NKD1-EF (domain or fragment)
chain: EPCPGSKKQLKFEELQCDVSMEEDSRQEWTFTLYDFDNNGKVTREDITSLLHTIYEVVDSSVNHSPTSSKMLRVKLTVAPD
Regarding B1, the “stoichiometry N” value in series [3] is 2. Binding in series [4] was put at a Kd of 3.2 ± 0.2 µM.
